# Laboratory results taken from patent publication US6379938B1, “Epoxide hydrolase” (Puratos N.V., priority 1997, dated 2002).
# Assays:
# [1] = Determination of the cis-epoxysuccinate-hydrolase activity (L-tartaric acid formed, HPLC); format: biochemical; conditions: cells of Escherichia coli DH10B containing plasmid pREHXS, overnight culture; 37° C., pH 8.0; activity = amount of L(+)-tartaric acid formed in a day by 1 gram of dried cells
# Experimental: The enzymatic reaction is performed at 37° C. in a final volume of 9.3 ml that contains the following components: 0.7 ml of 0.1N Tris.HCl buffer pH 8.0, 2.6 ml of a 1.14% Triton X-100 solution, 5.0 ml of a 30% sodium cis-epoxysuccinate solution and 1.0 ml of the cell suspension. The reaction is stopped by diluting the mixture between 100 and 500 times with H2O acidified to pH 2.2 with H3PO4.
# The amount of L-tartaric acid formed during the reaction is determined by HPLC at room temperature on a Vydac C18 column (cat no. 201HS3410) with a flow rate between 400 and 600 μl/min and a sample volume of 20 μl. The solvent is the same as the one used to dilute the samples. The detection of cis-epoxysuccinate and tartaric acid occurs at 210 nm.
# Activity is expressed as the amount of L(+)-tartaric acid formed in a day by 1 gram of dried cells.
# The Escherichia coli strain DH10B containing the plasmid pREHXS is cultivated overnight in 2×LB medium (Yeast Extract 1%, Bacto-tryptone 2%, NaCl 2%) supplemented with 100 μg/ml of ampicillin. The same strain with the pBluescriptSK(+) plasmid without insert is used as a control.
# The activity of the cis-epoxysuccinate hydrolase is determined in the cells collected from the two cultures using the protocol described in example 1. No activity could be detected in the control. About 150 units is present in the strain expressing the cis-epoxysuccinate gene.
# [2] = pH activity profile of the epoxide hydrolase (FIG. 5); format: biochemical; conditions: pH between 7.0 and 10 (FIG. 5)
# Description: The isolated and purified epoxide hydrolase amino acid sequence according to the invention is also characterised by an advantageous pH activity profile having a high enzymatic activity (more than 80% of the optimum enzyme activity) between 7.0 and 10, preferably between 7.5 and 9.5 (see FIG. 5).
# FIG. 5 represents the relative enzymatic activity of the enzyme according to the invention.
# This enzymatic activity is advantageously maintained constant at a pH higher than 7, preferably at a pH comprised between 7.0 and 10, more preferably at a pH comprised between 7.5 and 9.5.
molecule,measurement,setting,value
"cis-epoxysuccinate hydrolase: 253 amino acid, 28 kDa epoxide hydrolase of Rhodococcus rhodochrous LMGP-18079, expressed in E. coli from plasmid pREHXS (protein) MQLNNANDNTQFRALLFDVQGTLTDFRSTLIEHGLSILGDRVDRELWEELVDQWRGCYRDELDSLVKQEKWRSVRAVYRDSLINLLAKFSDSFCATSAEVELLTDGWERLRSWPDVPSGLEQLRSKYLVAALTNADFSAIVNVGRSAKLQWDAVLSAQLFGAYKPHRSTYEGAATLLGIAPSEILMVASHAYDLEAAREVGAGTAYVRRPLEYGPTGRTEDVPDGRFDFLVDSISELADQLGCPRLGGTAGID",activity of the cis-epoxysuccinate hydrolase,[1],About 150 units
same,enzymatic activity relative to the optimum enzyme activity,[2],more than 80%
